From article PMC8754640 (Nucleic Acids Research, 2021)

B1: GST-CTD (residues 372–636) (domain or fragment, UniProt P11940 372-636, looked up)
chain: EERQAHLTNQYMQRMASVRAVPNPVINPYQPAPPSGYFMAAIPQTQNRAAYYPPSQIAQLRPSPRWTAQGARPHPFQNMPGAIRPAAPRPPFSTMRPASSQVPRVMSTQRVANTSTQTMGPRPAAAAAAATPAVRTVPQYKYAAGVRNPQQHLNAQPQVTMQQPAVHVQGQEPLTASMLASAPPQEQKQMLGERLFPLIQAMHPTLAGKITGMLLEIDNSELLHMLESPESLRSKVDEAVAVLQAHQAKEAAQKAVNSATGVPTV
B2: GST-RRM2-3 (residues 97–299) (domain or fragment, UniProt P11940 97-299, looked up)
chain: GVGNIFIKNLDKSIDNKALYDTFSAFGNILSCKVVCDENGSKGYGFVHFETQEAAERAIEKMNGMLLNDRKVFVGRFKSRKEREAELGARAKEFTNVYIKNFGEDMDDERLKDLFGKFGPALSVKVMTDESGKSKGFGFVSFERHEDAQKAVDEMNGKELNGKQIYVGRAQKKVERQTELKRKFEQMKQDRITRYQGVNLYVK
B3: Flag-2–3 (97–299) (domain or fragment, UniProt P11940 97-299, looked up)
chain: GVGNIFIKNLDKSIDNKALYDTFSAFGNILSCKVVCDENGSKGYGFVHFETQEAAERAIEKMNGMLLNDRKVFVGRFKSRKEREAELGARAKEFTNVYIKNFGEDMDDERLKDLFGKFGPALSVKVMTDESGKSKGFGFVSFERHEDAQKAVDEMNGKELNGKQIYVGRAQKKVERQTELKRKFEQMKQDRITRYQGVNLYVK
B7: Flag-1–2–3–4 (2–371) (domain or fragment, UniProt P11940 2-371, looked up)
chain: NPSAPSYPMASLYVGDLHPDVTEAMLYEKFSPAGPILSIRVCRDMITRRSLGYAYVNFQQPADAERALDTMNFDVIKGKPVRIMWSQRDPSLRKSGVGNIFIKNLDKSIDNKALYDTFSAFGNILSCKVVCDENGSKGYGFVHFETQEAAERAIEKMNGMLLNDRKVFVGRFKSRKEREAELGARAKEFTNVYIKNFGEDMDDERLKDLFGKFGPALSVKVMTDESGKSKGFGFVSFERHEDAQKAVDEMNGKELNGKQIYVGRAQKKVERQTELKRKFEQMKQDRITRYQGVNLYVKNLDDGIDDERLRKEFSPFGTITSAKVMMEGGRSKGFGFVCFSSPEEATKAVTEMNGRIVATKPLYVALAQRK
B9: Flag-C (372–636) (domain or fragment, UniProt P11940 372-636, looked up)
chain: EERQAHLTNQYMQRMASVRAVPNPVINPYQPAPPSGYFMAAIPQTQNRAAYYPPSQIAQLRPSPRWTAQGARPHPFQNMPGAIRPAAPRPPFSTMRPASSQVPRVMSTQRVANTSTQTMGPRPAAAAAAATPAVRTVPQYKYAAGVRNPQQHLNAQPQVTMQQPAVHVQGQEPLTASMLASAPPQEQKQMLGERLFPLIQAMHPTLAGKITGMLLEIDNSELLHMLESPESLRSKVDEAVAVLQAHQAKEAAQKAVNSATGVPTV

Columns and labels:
His-PABP WT-Flag = His-PABP WT-Flag (UniProt P11940 2-636); test: co-IP
Flag-C (372–636) = molecular target: B9; test: co-IP
Flag-1–2–3–4 (2–371) = molecular target: B7; test: co-IP
Flag-2–3 (97–299) = molecular target: B3; test: co-IP
GST-PABP WT = GST-PABP WT (UniProt P11940 1-636); test: co-IP
[1] = molecular target: B2; test: pull-down
[2] = molecular target: B2; test: co-IP
[3] = molecular target: B1; test: co-IP
SEC = molecular target: the molecule itself; test: SEC

## B1
His-PABP WT-Flag
  binding result: binds
Flag-C (372–636)
  binding result: binds

## B2
Flag-1–2–3–4 (2–371)
  binding result: binds
Flag-2–3 (97–299)
  binding result: binds

## B3
GST-PABP WT
  binding result: binds
[1]
  binding result: binds

B4: Flag-linker2-RRM3 (176–299) (domain or fragment, UniProt P11940 176-299, looked up)
chain: RKEREAELGARAKEFTNVYIKNFGEDMDDERLKDLFGKFGPALSVKVMTDESGKSKGFGFVSFERHEDAQKAVDEMNGKELNGKQIYVGRAQKKVERQTELKRKFEQMKQDRITRYQGVNLYVK
[2]
  binding result: binds

B5: Flag-Linker (372–543) (domain or fragment, UniProt P11940 372-543, looked up)
chain: EERQAHLTNQYMQRMASVRAVPNPVINPYQPAPPSGYFMAAIPQTQNRAAYYPPSQIAQLRPSPRWTAQGARPHPFQNMPGAIRPAAPRPPFSTMRPASSQVPRVMSTQRVANTSTQTMGPRPAAAAAAATPAVRTVPQYKYAAGVRNPQQHLNAQPQVTMQQPAVHVQGQE
[3]
  binding result: binds

B6: His-PABP 4EA mutant-Flag (natural protein, UniProt P11940 2-636, looked up)
chain: NPSAPSYPMASLYVGDLHPDVTEAMLYEKFSPAGPILSIRVCRDMITRRSLGYAYVNFQQPADAERALDTMNFDVIKGKPVRIMWSQRDPSLRKSGVGNIFIKNLDKSIDNKALYDTFSAFGNILSCKVVCDENGSKGYGFVHFETQEAAERAIEKMNGMLLNDRKVFVGRFKSRKARAAALGARAKAFTNVYIKNFGEDMDDERLKDLFGKFGPALSVKVMTDESGKSKGFGFVSFERHEDAQKAVDEMNGKELNGKQIYVGRAQKKVERQTELKRKFEQMKQDRITRYQGVNLYVKNLDDGIDDERLRKEFSPFGTITSAKVMMEGGRSKGFGFVCFSSPEEATKAVTEMNGRIVATKPLYVALAQRKEERQAHLTNQYMQRMASVRAVPNPVINPYQPAPPSGYFMAAIPQTQNRAAYYPPSQIAQLRPSPRWTAQGARPHPFQNMPGAIRPAAPRPPFSTMRPASSQVPRVMSTQRVANTSTQTMGPRPAAAAAAATPAVRTVPQYKYAAGVRNPQQHLNAQPQVTMQQPAVHVQGQEPLTASMLASAPPQEQKQMLGERLFPLIQAMHPTLAGKITGMLLEIDNSELLHMLESPESLRSKVDEAVAVLQAHQAKEAAQKAVNSATGVPTV
SEC
  stoichiometry N: 2

## B7
GST-PABP WT
  binding result: binds

B8: Flag-1–2–3 (2–299) (domain or fragment, UniProt P11940 2-299, looked up)
chain: NPSAPSYPMASLYVGDLHPDVTEAMLYEKFSPAGPILSIRVCRDMITRRSLGYAYVNFQQPADAERALDTMNFDVIKGKPVRIMWSQRDPSLRKSGVGNIFIKNLDKSIDNKALYDTFSAFGNILSCKVVCDENGSKGYGFVHFETQEAAERAIEKMNGMLLNDRKVFVGRFKSRKEREAELGARAKEFTNVYIKNFGEDMDDERLKDLFGKFGPALSVKVMTDESGKSKGFGFVSFERHEDAQKAVDEMNGKELNGKQIYVGRAQKKVERQTELKRKFEQMKQDRITRYQGVNLYVK
GST-PABP WT
  binding result: binds

## B9
GST-PABP WT
  binding result: binds
